# Source: PMC6004577
# Target: Acanthamoeba castellanii actin (amoeba actin), filaments (Acanthamoeba castellanii)
# Chain of mDelFCΔ20, mDelFC lacking the last 20 residues (Q0QWG9 805-1183, stated change not applied): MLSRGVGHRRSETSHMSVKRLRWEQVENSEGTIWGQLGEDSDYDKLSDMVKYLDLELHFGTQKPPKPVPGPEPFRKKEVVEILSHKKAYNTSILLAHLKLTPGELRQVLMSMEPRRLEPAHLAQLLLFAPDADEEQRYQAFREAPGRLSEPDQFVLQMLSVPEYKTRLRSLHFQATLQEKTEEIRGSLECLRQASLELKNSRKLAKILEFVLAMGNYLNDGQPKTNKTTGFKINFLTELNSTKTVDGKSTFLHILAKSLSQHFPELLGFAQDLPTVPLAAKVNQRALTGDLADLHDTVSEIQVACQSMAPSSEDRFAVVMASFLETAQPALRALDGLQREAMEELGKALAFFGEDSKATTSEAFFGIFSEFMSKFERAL
substance,measurement,value
"mDelFCΔ20, mDelFC lacking the last 20 residues (from UniProt Q0QWG9-2 626-1004) (domain or fragment)",inhibition of barbed-end elongation in seeded elongation assays,7 nM
